Data as given in patent publication US20140031294A1.

Biological target: Concanavalin A (UniProt P02866)
Assay: ConA sepharose affinity chromatography, load and eluate by RP-HPLC

Analysis 1 Eluate Recovery % (w/w) (ConA binding material)	Analysis 2 Eluate Recovery % (w/w) (ConA binding material)	Substance
0.15 % (w/w)	–	recombinant transferrin (S32A, S415A, T613A) (from UniProt P02787 20-698) (ligand)
0.25 % (w/w)	0.26 % (w/w)	recombinant transferrin (S32C, S415A, T613A) (from UniProt P02787 20-698) (ligand)
